Paper PMC7392197 (Journal of the American Chemical Society, 2020)

Target: the molecule itself
Assay: SEC

B1: His6-MBP-UvrC fusion protein (holo form, with [4Fe4S] cluster) (enzyme, E. coli, UniProt P0A8G0 1-610, looked up)
chain: MSDQFDAKAFLKTVTSQPGVYRMYDAGGTVIYVGKAKDLKKRLSSYFRSNLASRKTEALVAQIQQIDVTVTHTETEALLLEHNYIKLYQPRYNVLLRDDKSYPFIFLSGDTHPRLAMHRGAKHAKGEYFGPFPNGYAVRETLALLQKIFPIRQCENSVYRNRSRPCLQYQIGRCLGPCVEGLVSEEEYAQQVEYVRLFLSGKDDQVLTQLISRMETASQNLEFEEAARIRDQIQAVRRVTEKQFVSNTGDDLDVIGVAFDAGMACVHVLFIRQGKVLGSRSYFPKVPGGTELSEVVETFVGQFYLQGSQMRTLPGEILLDFNLSDKTLLADSLSELAGRKINVQTKPRGDRARYLKLARTNAATALTSKLSQQSTVHQRLTALASVLKLPEVKRMECFDISHTMGEQTVASCVVFDANGPLRAEYRRYNITGITPGDDYAAMNQVLRRRYGKAIDDSKIPDVILIDGGKGQLAQAKNVFAELDVSWDKNHPLLLGVAKGADRKAGLETLFFEPEGEGFSLPPDSPALHVIQHIRDESHDHAIGGHRKKRAKVKNTSSLETIEGVGPKRRQMLLKYMGGLQGLRNASVEEIAKVPGISQGLAEKIFWSLKH
Question: With B1 as the protein, how does the “stoichiometry N” value read?
Answer: 2
